The target of test [1] is CLEC2D iso4-Fc. As to the kind of experiment: ELISA, coated CLEC2D iso4-Fc, anti-mIg-HRP detection.
The target of test [2] is CLEC2D iso2-Fc. As to the kind of experiment: ELISA, coated CLEC2D iso2-Fc, anti-mIg-HRP detection. In general terms: In an ELISA, binding on a coated surface is turned into a signal by an enzyme label.
Test [3] has as its target lectin-like transcript 1 (LLT1), recombinantly expressed on cells (human) (UniProt Q9UHP7). As to the kind of experiment: cell-based or functional assay.
Test [4] has as its target CLEC2A-Fc protein (UniProt Q6UVW9). As to the kind of experiment: ELISA, coated CLEC2A-Fc, anti-mIg-HRP detection.
Test [5] deals with LLT1-Fc fusion protein (human) (UniProt Q9UHP7). As to the kind of experiment: ELISA, coated LLT1-Fc, anti-mIg-HRP detection.
Sequence of LLT1-Fc fusion protein (human) (Q9UHP7 60-191 limits assumed): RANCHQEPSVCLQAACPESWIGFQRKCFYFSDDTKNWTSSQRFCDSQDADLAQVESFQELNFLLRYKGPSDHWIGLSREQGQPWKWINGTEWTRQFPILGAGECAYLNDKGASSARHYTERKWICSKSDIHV
Test [6] concerns the target CD161, on cells (UniProt Q12918). As to the kind of experiment: cell-based or functional assay.
The target in test [7] is CLEC2D iso2-Fc. As to the kind of experiment: ELISA, coated CLEC2D iso2-Fc, direct detection of the Fc portion.
Test [8] concerns the target LLT1-Fc fusion protein (human) (UniProt Q9UHP7). As to the kind of experiment: ELISA, coated LLT1-Fc, direct detection of the Fc portion.
Test [9] deals with CLEC2D iso4-Fc. As to the kind of experiment: ELISA, coated CLEC2D iso4-Fc, direct detection of the Fc portion.
Test [10] addresses CLEC2A-Fc protein (UniProt Q6UVW9). In words: ELISA, coated CLEC2A-Fc, direct detection of the Fc portion.
Test [11] addresses CD20 on C1R and C1R-LLT1 cells (UniProt P11836). In words: cell-based or functional assay.

A value given as a limit tells only on which side of the number the result lay.

Sequence of lectin-like transcript 1 (LLT1), recombinantly expressed on cells (human) (Q9UHP7 whole entry): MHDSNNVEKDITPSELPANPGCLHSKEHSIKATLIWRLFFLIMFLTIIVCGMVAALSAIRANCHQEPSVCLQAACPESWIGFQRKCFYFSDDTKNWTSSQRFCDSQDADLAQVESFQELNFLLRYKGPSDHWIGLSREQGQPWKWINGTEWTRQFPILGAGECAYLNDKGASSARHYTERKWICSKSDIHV
Sequence of CLEC2A-Fc protein (Q6UVW9 49-174): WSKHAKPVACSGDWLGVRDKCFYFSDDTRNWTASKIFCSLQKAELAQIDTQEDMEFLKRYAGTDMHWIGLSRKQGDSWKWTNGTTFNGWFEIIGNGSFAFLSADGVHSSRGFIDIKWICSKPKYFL
Sequence of CD20 on C1R and C1R-LLT1 cells (P11836 whole entry): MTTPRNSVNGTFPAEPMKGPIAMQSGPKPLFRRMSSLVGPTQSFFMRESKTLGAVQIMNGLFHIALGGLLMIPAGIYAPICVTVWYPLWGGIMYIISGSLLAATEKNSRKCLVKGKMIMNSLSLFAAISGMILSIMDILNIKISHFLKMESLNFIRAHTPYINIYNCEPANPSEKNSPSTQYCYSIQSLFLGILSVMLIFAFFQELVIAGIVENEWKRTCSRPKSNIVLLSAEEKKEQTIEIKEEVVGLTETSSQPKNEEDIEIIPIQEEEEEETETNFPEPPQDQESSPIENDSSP

For MAB3480 (antibody), the OD came out at 0.112 OD in [1], 0.117 OD in test [2], 0.104 OD in test [4] and 1.21 OD in test [5]. Further, the % CD107a+ NK cells (NK cells + C1R-LLT1) in test [3] is 4.7%. For the same substance, the % IFN-γ+ NK cells (NK cells + C1R-LLT1) in [3] worked out at 3%.

As to AF3480 (antibody), in test [3], the % CD107a+ NK cells (NK cells + C1R-LLT1) is 5.3% and the % IFN-γ+ NK cells (NK cells + C1R-LLT1) turned out to be 3.3%.

Take anti-CD161 mAb DX12 (antibody): in test [6], the % CD107a+ NK cells (NK cells + C1R-LLT1) was determined as 8.1% and the % IFN-γ+ NK cells (NK cells + C1R-LLT1) came to 5.4%.

As to anti-CD161 mAb HP3G10 (antibody), in test [6], the % CD107a+ NK cells (NK cells + C1R-LLT1) was 9.5%; the % CD107a+ NK cells, Raji target cells (no mAb 10.3) came to 13.1%; the % CD107a+ NK cells, Ramos target cells (no mAb 8.1) is 10.9%; the % CD107a+ NK cells, SUDHL4 target cells (no mAb 11.6) is 17.5%. Moreover, in test [6], the % IFN-γ+ NK cells (NK cells + C1R-LLT1) stood at 5.3%.

Take HRP-conjugated anti-human Ig antibody: the OD in test [7] is 1.01 OD; in test [8], 1.08 OD; in test [9], 1.04 OD; in test [10], 1.15 OD.

On to anti-CD20 (rituximab) (antibody), for which the ADCC: specific lysis of C1R and C1R-LLT1 cells by NK cells (chromium release); antibody concentration giving lysis in test [11] was greater than 0.16 mg/mL.

In the case of anti-CD161 mAb 191B8 (antibody), in test [6], the % CD107a+ NK cells (NK cells + C1R-LLT1) was found to be 13.2% and the % IFN-γ+ NK cells (NK cells + C1R-LLT1) was determined as 7.4%.
